Substrate in the series: NS(=O)(=O)c1cc(C(=O)O)c(NCc2ccco2)cc1Cl
As to the kind of experiment: cells, lysate or membranes. Conditions: ATP, Mg2+.

B1: multidrug resistance-associated protein 4 (MRP4) (Homo sapiens) (protein)
chain: MLPVYQEVKPNPLQDANLCSRVFFWWLNPLFKIGHKRRLEEDDMYSVLPEDRSQHLGEELQGFWDKEVLRAENDAQKPSLTRAIIKCYWKSYLVLGIFTLIEESAKVIQPIFLGKIINYFENYDPMDSVALNTAYAYATVLTFCTLILAILHHLYFYHVQCAGMRLRVAMCHMIYRKALRLSNMAMGKTTTGQIVNLLSNDVNKFDQVTVFLHFLWAGPLQAIAVTALLWMEIGISCLAGMAVLIILLPLQSCFGKLFSSLRSKTATFTDARIRTMNEVITGIRIIKMYAWEKSFSNLITNLRKKEISKILRSSCLRGMNLASFFSASKIIVFVTFTTYVLLGSVITASRVFVAVTLYGAVRLTVTLFFPSAIERVSEAIVSIRRIQTFLLLDEISQRNRQLPSDGKKMVHVQDFTAFWDKASETPTLQGLSFTVRPGELLAVVGPVGAGKSSLLSAVLGELAPSHGLVSVHGRIAYVSQQPWVFSGTLRSNILFGKKYEKERYEKVIKACALKKDLQLLEDGDLTVIGDRGTTLSGGQKARVNLARAVYQDADIYLLDDPLSAVDAEVSRHLFELCICQILHEKITILVTHQLQYLKAASQILILKDGKMVQKGTYTEFLKSGIDFGSLLKKDNEESEQPPVPGTPTLRNRTFSESSVWSQQSSRPSLKDGALESQDTENVPVTLSEENRSEGKVGFQAYKNYFRAGAHWIVFIFLILLNTAAQVAYVLQDWWLSYWANKQSMLNVTVNGGGNVTEKLDLNWYLGIYSGLTVATVLFGIARSLLVFYVLVNSSQTLHNKMFESILKAPVLFFDRNPIGRILNRFSKDIGHLDDLLPLTFLDFIQTLLQVVGVVSVAVAVIPWIAIPLVPLGIIFIFLRRYFLETSRDVKRLESTTRSPVFSHLSSSLQGLWTIRAYKAEERCQELFDAHQDLHSEAWFLFLTTSRWFAVRLDAICAMFVIIVAFGSLILAKTLDAGQVGLALSYALTLMGMFQWCVRQSAEVENMMISVERVIEYTDLEKEAPWEYQKRPPPAWPHEGVIIFDNVNFMYSPGGPLVLKHLTALIKSQEKVGIVGRTGAGKSSLISALFRLSEPEGKIWIDKILTTEIGLHDLRKKMSIIPQEPVLFTGTMRKNLDPFNEHTDEELWNALQEVQLKETIEDLPGKMDTELAESGSNFSVGQRQLVCLARAILRKNQILIIDEATANVDPRTDELIQKKIREKFAHCTVLTIAHRLNTIIDSDKIMVLDSGRLKEYDEPYVLLQNKESLFYKMVQQLGKAEAAALTETAKQVYFKRNYPHIGHTDHMVTNTSNGQPSTLTIFETAL
Consider B1, for which the Km came to 27.96 µM.

The values are drawn from PMC7774078.
